“Also recorded” adds a separate entry of the source.
Experiments:
PLB-985 cells = assay: Cellular penetration assay; assay type: cell-based, human; settings: PLB-985 cells in culture, 5 μM DX1 for one hour
Procedure: FIG. 1. DX1 penetrates PLB-985 cells. Cells treated with control or 5 μM DX1 for one hour were washed, fixed, and immunostained to detect DX1. […] Dark stain represents alkaline phosphatase-based detection of signal. Bar: 25 μm.
Work with isolated mouse or human neutrophils is challenging due to their short functional lifespans, and granulocyte-differentiated HL-60 and their subclone PLB-985 human acute myeloid leukemia cells provide a reliable alternative to isolated neutrophils for NETosis studies. The nuclear-penetrating anti-DNA autoantibody 3E10 and its derivative DX1 require expression of the nucleoside transporter ENT2 in order to penetrate target cells. ENT2 expression in HL-60 cells has previously been reported, and DX1 was confirmed to penetrate into ˜100% of PLB-985 cells in culture (FIG. 1).
PLB-985 cells cultured on Shi-fix coverslips (Shikhar Biotech, Khumaltar, Lalitpur, Nepal) were treated for one hour with control media or media containing 5 μM DX1 and then washed and fixed in 100% chilled ethanol. Presence of DX1 in the cells was evaluated by incubation with Pierce™ Recombinant Protein L (1:1000) (#21189, Thermo Fisher Scientific), protein L polyclonal antibody (1:1000) (#PA1-72066, Thermo Fisher Scientific), and goat anti-chicken IgY (H+L) alkaline phosphatase secondary antibody (1:1000) (#PA1-28799, Thermo Fisher Scientific). […]

MPO immunized mice = assay: Mouse model of ANCA associated vasculitis; assay type: in vivo; settings: one or two doses of DX1 at 25 mg/kg, assessed day 20, versus MPO immunized control
Procedure: FIG. 9. Graphic depiction of an experiment testing the impact of DX1 in a 20-day mouse model of ANCA vasculitis.
FIGS. 10A-10D. […] Mice were treated as depicted in FIG. 9. Glomerular segmental necrosis, macrophages, neutrophils, and CD4+ T-cells was evaluated in control and MPO-immunized mice that subsequently were treated with or without one or two doses of DX1.
Mice receiving two doses of DX1 received their second dose at day 18. Mice were culled for assessment at day 20.
Mice were separated into 4 groups: Ova control (n=4); MPO immunized no treatment with DX1 (n=8); MPO immunized and 1 dose of DX1 at 25 mg/kg (n=8) and; MPO immunized and 2 doses of DX1 at 25 mg/kg.

[1] = tested on: differentiated PLB-985 cells; assay: Quantifying extracellular DNA by SYTOX Green stain after PMA stimulation; assay type: cell-based, human; settings: one hour pre-treatment with 10 μM DX1, 300 nM PMA two hours, plate reader; N=3
Procedure: FIGS. 2A-2D. DAPI and SYTOX™ Green stains support the conclusion that DX1inhibits chromatin decondensation and DNA release by differentiated PLB-985 cells stimulated with PMA. (2A) Chromatin decondensation in differentiated PLB-985 cells after stimulation with PMA±a one hour pre-treatment with 10 μM DX1 was visualized by DAPI stain. Left panel: Control cells with decondensed DAPI stain after PMA stimulation. Right panel: DX1-treated cells retaining condensed DAPI signal after PMA stimulation. Bar: 25 μm. (2B) Quantification of the percentage of differentiated PLB-985 cells with decondensed DAPI stain after PMA stimulation. […] (2C) DNA release by differentiated PLB-985 cells after stimulation with PMA±a one hour pre-treatment with 10 μM DX1 was visualized by addition of the impermeant DNA stain SYTOX™ Green. Representative images are shown. Bar: 25 μm. (2D) SYTOX™ Green signal in wells containing differentiated PLB-985 cells stimulated with PMA±a one hour pre-treatment with 10 […] was quantified by plate reader. […]
SYTOX™ Green is an impermeant fluorescent DNA stain that facilitates visualization of DNA released in NETosis. Differentiated PLB-985 cells treated with control or 10 μM DX1 and stimulated with PMA were exposed to SYTOX™ Green, and fluorescence was visualized under fluorescence microscopy and quantified by plate reader. […]

[2] = tested on: differentiated PLB-985 cells; assay: H3Cit western blot; assay type: cell-based, human; settings: 10 μM DX1 one hour, then PMA; PMA control 0.64±0.06; N=3
Procedure: FIGS. 5A-5B. […] Differentiated PLB-985 cells were pre-treated with control media or media containing 10 μM DX1 for one hour, followed by stimulation with PMA. Cellular contents were isolated and analyzed by H3Cit western blot. Representative cropped blot is shown in (5A), and quantification of H3Cit band intensity normalized to actin in (5B). […]
Histone citrullination by PAD4 is a key step in NETosis that is targeted by the selective PAD4 inhibitor GSK484. Differentiated PLB-985 cells treated with control or 10 μM DX1 for one hour were stimulated by PMA, and cell contents were isolated and analyzed for H3Cit content by western blot with normalization to actin. […]
Differentiated PLB-985 cells at 8×10^5 cells/well in 12-well plates were incubated with control buffer or buffer containing 10 μM DX1 for one hour and then stimulated by addition of 300 nM PMA for two hours. Cells were isolated by centrifugation, lysed in RIPA buffer, and H3Cit content determined by western blot using anti-H3Cit primary (#AB5103, abcam, Cambridge, MA, USA) and goat anti-rabbit HRP-conjugated secondary antibody at 1:5000 (#AB205718, abcam). H3Cit band intensities normalized to actin loading control were determined by ImageJ (NIH, Bethesda, MD).

B1: DX1: 3E10 derivative, a di-scFv having the sequence SEQ ID NO: 38; nuclear-penetrating anti-DNA binding protein (protein)
scFv: DIQMTQSPSSLSASLGDRATITCRASKTVSTSSYSYMHWYQQKPGQPPKLLIKYASYLESGVPSRFSGSGSGTDFTLTISSLQPEDAATYYCQHSREFPWTFGGGTKVEIKTVDAAPGGGGSGGGGSGGGGSEVQLVESGGGLVQPGGSLRLSCAASGFTFSNYGMHWVRQAPGKGLEWVSYISSGSSTIYYADSVKGRFTISRDNAKNSLYLQMNSLRAEDTAVYYCARRGLLLDYWGQGTTVTVSSASTKGPSVFPLAPLESTGSDIQMTQSPSSLSASLGDRATITCRASKTVSTSSYSYMHWYQQKPGQPPKLLIKYASYLESGVPSRFSGSGSGTDFTLTISSLQPEDAATYYCQHSREFPWTFGGGTKVEIKTVDAAPGGGGSGGGGSGGGGSEVQLVESGGGLVQPGGSLRLSCAASGFTFSNYGMHWVRQAPGKGLEWVSYISSGSSTIYYADSVKGRFTISRDNAKNSLYLQMNSLRAEDTAVYYCARRGLLLDYWGQGTTVTVSS
modifications: DX1 sequence
cells penetrated by DX1 (PLB-985 cells): ~100% | glomerular segmental necrosis, macrophages, neutrophils and CD4+ T-cells (glomerular inflammation and pathology) (MPO immunized mice): significantly reduced glomerular inflammation and pathology; also recorded: significantly reduced amounts of all of the signs of glomerular inflammation | SYTOX Green signal relative to control [1]: 0.40±0.01 | intracellular H3Cit content normalized to actin, relative to unstimulated cells [2]: 1.46±0.20

Reference: US20250188194A1, “Method of treatment” (Nucleus Therapeutics Pty Ltd, priority 2021, published 2025)
